Data from the supplement of paper PMC9732359.
± gives the uncertainty stated by the source.

Assay: protein stability index of a GFP-peptide fusion (yeast GPS) (PSI 1-4); higher = more stable; sorted into four equal gates, so the index is relative within each strain
In short: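 Tiled 17-residue peptides from yeast proteins were fused downstream of GFP on a plasmid that also expresses Cherry, and the pooled library was carried in yeast. Mid-log cultures grown in leucine-free medium were sorted into four equal gates by GFP/Cherry fluorescence ratio. Plasmids from each gate were PCR-amplified and Illumina-sequenced, and reads were assigned to strains by barcodes. Each peptide's protein stability index is the sum, over gates, of the gate's read frequency multiplied by its gate number.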

Sequence	protein stability index (doa10∆)	protein stability index (pdr5∆)	protein stability index (san1∆)	protein stability index (ubr1∆)
MAQNKTHIPQTNLKNHP [YLR018C/POM34]	3.12 ± 0.082	2.98 ± 0.057	2.75 ± 0.058	2.85 ± 0.04
KRPPEIMSTEAHVNKVT [SIR4]	2.99 ± 0.19	2.96 ± 0.086	2.92 ± 0.1	2.73 ± 0.12
AVTHNLYYDEDINVESL [PUP2]	3.16 ± 0.11	3.25 ± 0.088	3.05 ± 0.18	2.89 ± 0.06
IDLEAPVQIVKRITQIT [RPS20]	2.15 ± 0.12	2.23 ± 0.2	1.78 ± 0.14	2.2 ± 0.094
IDYSNSQIRLYAKFKRN [RGR1]	3.1 ± 0.093	2.46 ± 0.1	2.45 ± 0.091	2.8 ± 0.057
GWFHSHPGYDCWLSNID [RRI1]	2.85 ± 0.075	3.05 ± 0.054	2.77 ± 0.074	2.81 ± 0.071
GNYSHLMEKNRIRKLTG [REC8]	1.58 ± 0.067	2.04 ± 0.061	2.56 ± 0.1	1.9 ± 0.062
QQVPPLPDELTLSYDDI [DLS1]	2.56 ± 0.045	2.83 ± 0.055	2.69 ± 0.05	2.74 ± 0.039
ARKGLTPSQIGVLLRDA [RPS13]	2.91 ± 0.26	–	2.09 ± 0.21	2.32 ± 0.041
CDILVATPGRLIDSLEN [PRP28]	3.54 ± 0.12	3.24 ± 0.11	3.2 ± 0.06	3.22 ± 0.065
QDLILDLKKKLNSLKDE [SMC4]	2.39 ± 0.083	2.82 ± 0.2	2.01 ± 0.076	1.57 ± 0.062
ILTPESQLKKSKAQQKT [RPL7A]	3.02 ± 0.078	3.02 ± 0.12	2.98 ± 0.12	2.98 ± 0.056
HLGERAASVIGMLVALG [RPC82]	2.05 ± 0.23	1.71 ± 0.1	1.75 ± 0.21	2.04 ± 0.067
DTTVNDCLDKLLNDECT [SNF2]	3.43 ± 0.16	3.46 ± 0.1	3.59 ± 0.075	3.73 ± 0.094
TGEKPIITGSTSTSSSN [MED8]	2.79 ± 0.048	2.52 ± 0.04	2.57 ± 0.044	2.37 ± 0.033
ELSKSRALQENGIIMNG [YMR153W/NUP53]	2.63 ± 0.16	2.85 ± 0.13	2.64 ± 0.16	3.17 ± 0.15
GKYTLGYKSTVKSLRQG [RPL30]	2.25 ± 0.072	2.34 ± 0.049	2.54 ± 0.09	2.47 ± 0.048
SIPMGGQSINDSLKKLL [ARP9]	2.39 ± 0.06	2.46 ± 0.063	2.47 ± 0.08	2.61 ± 0.056
LERIVQIMQNPTHYKIP [RPS18A]	2.61 ± 0.1	3.1 ± 0.11	2.9 ± 0.065	2.74 ± 0.12
FDDIFQVSEVDPGRYNK [RPB8]	3.06 ± 0.14	2.75 ± 0.12	2.57 ± 0.18	2.95 ± 0.097
KVSGVSLLALWKEKKEK [RPS23A]	2.55 ± 0.22	1.59 ± 0.1	1.78 ± 0.1	1.77 ± 0.11
KTGTKPAAVFAETLKHD [RPL4B]	2.17 ± 0.078	1.95 ± 0.18	1.63 ± 0.16	2 ± 0.15
IFHPMIHYSWSFILYYR [YML103C/NUP188]	1.74 ± 0.051	1.68 ± 0.032	1.69 ± 0.063	1.98 ± 0.048
GQQTAQPQQSTIGGGLF [YGR119C/NUP57]	2.88 ± 0.072	3.19 ± 0.052	2.93 ± 0.053	3.28 ± 0.067
IDSINGPDTKGQLEDFD [SMC3]	3.47 ± 0.14	3.29 ± 0.11	3.18 ± 0.24	3.31 ± 0.1
